Molecular target: T1, untagged NDP52 wild type (human), Q13137
T1 chain: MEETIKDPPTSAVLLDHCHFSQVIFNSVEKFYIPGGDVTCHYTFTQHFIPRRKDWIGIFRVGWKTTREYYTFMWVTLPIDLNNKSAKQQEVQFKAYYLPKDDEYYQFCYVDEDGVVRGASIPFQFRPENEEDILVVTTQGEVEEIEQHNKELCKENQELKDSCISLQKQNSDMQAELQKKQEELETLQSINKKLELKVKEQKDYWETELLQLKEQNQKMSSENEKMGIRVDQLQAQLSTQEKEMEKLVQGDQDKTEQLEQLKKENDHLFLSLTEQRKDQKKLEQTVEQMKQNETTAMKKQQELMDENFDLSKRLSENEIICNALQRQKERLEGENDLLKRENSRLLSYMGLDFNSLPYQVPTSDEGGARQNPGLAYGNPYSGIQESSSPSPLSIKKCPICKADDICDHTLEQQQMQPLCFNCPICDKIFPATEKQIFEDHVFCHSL
Assay: native gel or EMSA; blue native PAGE (4–16% NativePAGE gel, Coomassie G-250) of recombinant NDP52 WT and Mut, immunoblot
Details: remark: other sources report otherwise

stoichiometry N: 2
B1: untagged NDP52 wild type, Q13137 1-446 (natural protein)
chain: MEETIKDPPTSAVLLDHCHFSQVIFNSVEKFYIPGGDVTCHYTFTQHFIPRRKDWIGIFRVGWKTTREYYTFMWVTLPIDLNNKSAKQQEVQFKAYYLPKDDEYYQFCYVDEDGVVRGASIPFQFRPENEEDILVVTTQGEVEEIEQHNKELCKENQELKDSCISLQKQNSDMQAELQKKQEELETLQSINKKLELKVKEQKDYWETELLQLKEQNQKMSSENEKMGIRVDQLQAQLSTQEKEMEKLVQGDQDKTEQLEQLKKENDHLFLSLTEQRKDQKKLEQTVEQMKQNETTAMKKQQELMDENFDLSKRLSENEIICNALQRQKERLEGENDLLKRENSRLLSYMGLDFNSLPYQVPTSDEGGARQNPGLAYGNPYSGIQESSSPSPLSIKKCPICKADDICDHTLEQQQMQPLCFNCPICDKIFPATEKQIFEDHVFCHSL

Source: article PMC9975939
